Key:
HLA-A*03:01 [1] = target: T1, HLA-A*03:01 (Homo sapiens, UniProt P04439); assay: HLA class I immunoprecipitation peptide elution and tandem Mass Spec (MS/MS), monoallelic K562 RAS TMG cell lines; assay type: cell-based; set-up: expressed in transfected cells; host or cells: K562, lentiviral HLA construct plus RAS tandem minigene construct; conditions: A*03:01-restricted; antigen processing/presentation
Text: (§1) Additional antigen processing and presentation studies were done using mass spectrometry. First, monoallelic K562 cell lines were created to express specific HLA types (FIG. 7A). Further, lentiviral constructs expressing various wt RAS and mRAS peptides were generated (FIG. 7E). Monoallelic cell lines that express specific HLA types and the various RAS and mRAS peptides were then created. The expression of HLA class I and HLA-specific expression of RAS TMG cells lines were verified by FACS (FIG. 7C and FIG. 7D).
(§2) Further, novel epitopes are identified for HLA-B*07:02.

HLA-A*11:01 [2] = target: T2, HLA-A*11:01 (Homo sapiens, UniProt P04439, A114D/D185E/E176A/F33Y/L180Q/S129P/T187R); assay: as above; assay type: cell-based; set-up: expressed in transfected cells; host or cells: K562, lentiviral HLA construct plus RAS tandem minigene construct; conditions: A*11:01-restricted; antigen processing/presentation
Text: as §1, §2

HLA-A*11:01 [3] = target: T2, HLA-A*11:01; assay: Competitive peptide binding fluorescence polarization assay; conditions: peptide-MHC binding; strong binding affinity indicated by log[IC50]<3.7 (FIG. 6A)
Procedure: (§3) Experiments were also conducted to examine peptide-MHC binding.

HLA-B*07:02 = HLA-B*07:02 (Homo sapiens, UniProt P01889); assay: HLA class I immunoprecipitation peptide elution and tandem Mass Spec (MS/MS), monoallelic K562 RAS TMG cell lines; assay type: cell-based; set-up: expressed in transfected cells; host or cells: K562, lentiviral HLA construct plus RAS tandem minigene construct; conditions: B*07:02-restricted; antigen processing/presentation
Text: as §1, §2

HLA-A*03:01 [4] = target: T1, HLA-A*03:01; assay: Competitive peptide binding fluorescence polarization assay; conditions: peptide-MHC binding; strong binding affinity indicated by log[IC50]<3.7 (FIG. 6A)
Procedure: as §3

wildtype RAS epitope = assay: Jurkat Reporter assay of TCR specificity and cross-reactivity; assay type: cell-based; conditions: Jurkat Reporter cells; HLA-B*07:02-restricted TCR
Procedure: The validation of TCR831 expression by peptide-MHC multimer staining of lentiviral-transduced Jurkat Reporter cells is shown in FIG. 25A. Experiments were conducted to examine TCR831 avidity by Jurkat Reporter cells (FIG. 25B). Experiments were also conducted to assess TCR831 specificity and cross-reactivity to alternative mutant RAS epitopes by Jurkat Reporter assay. […] depicts TCR activation of Jurkat Reporter cells following coculture with A*11:01 positive RAS G12V tumor cell lines. FIG. 25E depicts the expression of TCR831 on primary CD8+ T cells. […] Cell line coloring corresponds to that in FIG. 25D.
Experiments were also conducted to further characterize the expression and function of TCR833. The validation of TCR833 expression by peptide-MHC multimer staining of lentiviral-transduced Jurkat Reporter cells is shown in FIG. 26A. FIG. 26B depicts the results of experiments assessing TCR833 avidity by Jurkat Reporter cells. Experiments were also conducted to assess TCR833 specificity and cross-reactivity to alternative mutant RAS epitopes by Jurkat Reporter assay. […] FIG. 26D depicts TCR833 activation of Jurkat Reporter cells following coculture with A*11:01 positive RAS G12V tumor cell lines.
(§4) Further experiments were conducted to characterize TCR897 expression and function. TCR897 expression was validated by peptide-MHC multimer staining of lentiviral-transduced Jurkat Reporter cells, as shown in FIG. 27A. FIG. 27B depicts the results of experiments assessing TCR897 avidity by Jurkat Reporter cells. Experiments were conducted to assess TCR897 specificity and cross-reactivity to alternative mutant RAS epitopes by Jurkat Reporter assay.
as §4, with “TCR896” for “TCR897”, “28A.” for “27A.”, “28B” for “27B”, “assessing TCR” for “to assess TCR897”, “assay. […] FIG. 28D depicts TCR activation of Jurkat Reporter cells following coculture with A*03:01 positive RAS G12V tumor cell lines.” for “assay.”
as §4, with “done” for “conducted”, “TCR847” for “TCR897”, “29A.” for “27A.”, “29B” for “27B”, “TCR” for “TCR897 avidity by Jurkat Reporter cells. Experiments were conducted to assess TCR897”
as §4, with “TCR864” for “TCR897”, “30A.” for “27A.”, “30B” for “27B”, “examine TCR864” for “assess TCR897”, “assay. […] The expression of TCR864 on primary CD8+ T cells is depicted in FIG. 30D.” for “assay.”

RAS G12R (GA_R) = RAS G12R (GA_R) (Homo sapiens, UniProt P01116+P01889, G12R); assay: as above; assay type: cell-based; conditions: Jurkat Reporter cells
Procedure: as §4, with “done” for “conducted”, “TCR847” for “TCR897”, “29A.” for “27A.”, “29B” for “27B”, “TCR” for “TCR897 avidity by Jurkat Reporter cells. Experiments were conducted to assess TCR897”
as §4, with “TCR864” for “TCR897”, “30A.” for “27A.”, “30B” for “27B”, “examine TCR864” for “assess TCR897”, “assay. […] The expression of TCR864 on primary CD8+ T cells is depicted in FIG. 30D.” for “assay.”

[5] = system: alternatively mutated RAS epitopes; assay: as above; assay type: cell-based; conditions: Jurkat Reporter cells; HLA-B*07:02-restricted TCR
Procedure: as §4, with “TCR896” for “TCR897”, “28A.” for “27A.”, “28B” for “27B”, “assessing TCR” for “to assess TCR897”, “assay. […] FIG. 28D depicts TCR activation of Jurkat Reporter cells following coculture with A*03:01 positive RAS G12V tumor cell lines.” for “assay.”
as §4, with “done” for “conducted”, “TCR847” for “TCR897”, “29A.” for “27A.”, “29B” for “27B”, “TCR” for “TCR897 avidity by Jurkat Reporter cells. Experiments were conducted to assess TCR897”
as §4, with “TCR864” for “TCR897”, “30A.” for “27A.”, “30B” for “27B”, “examine TCR864” for “assess TCR897”, “assay. […] The expression of TCR864 on primary CD8+ T cells is depicted in FIG. 30D.” for “assay.”

| Molecule | detection of mRAS epitope by HLA class I immunoprecipitation peptide elution and MS/MS (HLA-A*03:01 [1]) | detection of mRAS epitope by HLA class I immunoprecipitation peptide elution and MS/MS (HLA-A*11:01 [2]) | binding affinity of mRAS neoepitope for HLA-A*11:01 (HLA-A*11:01 [3]) | other results |
| --- | --- | --- | --- | --- |
| VVVGADGVGK [VVV_D] | detection | detection | high binding affinity | – |
| GADGVGKSAL (GA_D) [mRAS peptide, G12D, HLA-B*07:02] | – | – | – | detection of mRAS epitope by HLA class I immunoprecipitation peptide elution and MS/MS (HLA-B*07:02): identified new epitopes |
| VVGADGVGK [VV_D] | – | detection | high binding affinity | – |
| VVVGAVGVGK [VVV_V] | detection | detection | high binding affinity | binding affinity of mRAS neoepitope for HLA-A*03:01 (HLA-A*03:01 [4]): high binding affinity |
| VVGACGVGK [VV_C] | – | – | high binding affinity | – |
| VVGARGVGK (VV_R) [mRAS peptide, G12R, HLA-A*03:01 and HLA-A*11:01] | detection | detection | high binding affinity | – |
| VVVGARGVGK (VVV_R) [mRAS peptide, G12R, HLA-A*03:01 and HLA-A*11:01] | – | – | high binding affinity | binding affinity of mRAS neoepitope for HLA-A*03:01 (HLA-A*03:01 [4]): high binding affinity |
| TCR847: TCR construct, TRAV17 and TRBV10-3; fusion protein SEQ ID NO: 80; HLA-B*07:02 (protein, TCR847 FUSION, TCR construct, TRAV17 and TRBV10-3; HLA-B*07:02) METLLGVSLVILWLQLARVNSQQGEEDPQALSIQEGENATMNCSYKTSINNLQWYRQNSGRGLVHLILIRSNEREKHSGRLRVTLDTSKKSSSLLITASRAADTASYFCATFPNFGNEKLTFGTGTRLTIIPNIQNPDPAVYQLRDSKSSDKSVCLFTDFDSQTNVSQSKDSDVYITDKTVLDMRSMDFKSNSAVAWSNKSDFACANAFNNSIIPEDTFFPSPESSCDVKLVEKSFETDTNLNFQNLSVIGFRILLLKVAGFNLLMTLRLWSSGSGEGRGSLLTCGDVEENPGPMGTRLFFYVALCLLWTGHMDAGITQSPRHKVTETGTPVTLRCHQTENHRYMYWYRQDPGHGLRLIHYSYGVKDTDKGEVSDGYSVSRSKTEDFLLTLESATSSQTSVYFCAISESERYYEQYFGPGTRLTVTEDLKNVFPPEVAVFEPSEAEISHTQKATLVCLATGFYPDHVELSWWVNGKEVHSGVSTDPQPLKEQPALNDSRYCLSSRLRVSATFWQNPRNHFRCQVQFYGLSENDEWTQDRAKPVTQIVSAEAWGRADCGFTSESYQQGVLSATILYEILLGKATLYAVLVSALVLMAMVKRKDSRG | – | – | – | reactivity to wildtype (wildtype RAS epitope): not wildtype; specificity for RAS G12R (GA_R) (RAS G12R (GA_R)): exhibits specificity; reactivity to alternatively mutated RAS epitopes [5]: not wildtype or alternatively mutated |

— US12533409B2, “Compositions and methods for targeting mutant RAS” (The Trustees of the University of Pennsylvania, priority 2019, dated 2026)
